Results published in PMC6703420, “How Thermophilic Gram-Positive Organisms Perform Extracellular Electron Transfer: Characterization of the Cell Surface Terminal Reductase OcwA” (mBio, 2019).

Experiments:
[1] = target: T1, OcwA (Outer cell wall protein A), TherJR_2595 (Thermincola carboxydiphila, UniProt D5XBK3); test: […] NMR titration; type: binding; settings: 100 μM FMN, 20 mM phosphate pH 7.6, 100 mM KCl, 25°C; slow exchange
T1 construct: native signal peptide replaced by that of S. oneidensis MR-1 stc, cleaved (N-terminus EKPAD); E. coli JM109(DE3), HisTrap purified; ~62 kDa; nine c-type hemes; monomer/dimer mixture; precursor 525 residues

purified protein = substrate: O=NO; test: purified protein; type: biochemical, Thermincola carboxydiphila; settings: up to 1 mM reduced methyl viologen, 50 mM potassium phosphate pH 7.0, 55°C, anaerobic

## Cc1cc2nc3c(=O)[nH]c(=O)nc-3n(C[C@H](O)[C@H](O)[C@H](O)COP(=O)(O)O)c2cc1C [FMN, flavin mononucleotide]
[1]
  31P NMR titration: These spectral changes arise from binding of FMN to OcwA in a slow exchange regime

B1: OcwA (Outer cell wall protein A), TherJR_2595 (Thermincola carboxydiphila JR) (protein)
chain: EKPADSGPAVAQNTEYVGDEACKTCHSDVHSAWSETSHGNFIKDVTKDPKALPGNFEGNYPKMLNFKAEDIQYVLLGKPGALKVQELVGKKGTFGVPADDYPVMWASWDAGKGEWEIEVEAIGEGTPWLSTCAGCHVTGLTVPTDKNPKAAKAFAGFGITCEQCHGPGAKHIKNPQGEKMVISYDAENCGQCHSRGDSVAKTPDGKPFGYPYNDEGQYVPGKKLADYYTVVSVEGDKEGKLFWPTKHAKNSHHLQYPEWLMTGHATALETLKGNGHAQDRCLKCHSAEAYLAKEGTTVTMNDAKLGVTCQVCHASHDPAATKEAFLRKPKTEICTQCHNAEGGIVAGKEVHHPHKEMNEGKIGLGFPDSPSVMYKAGVTCVDCHMPKTAGPKASHLMKVVMPKDGKANGMPDSCSSCHPGASQDYLQNVIDTWQNDIKGRLAKVKAKLDAKKAAANSQAYKEALTYYSIVAADGSNGVHNYDLAVKLLTAAEQKLQ
notes: native signal peptide replaced by that of S. oneidensis MR-1 stc, cleaved (N-terminus EKPAD); E. coli JM109(DE3), HisTrap purified; ~62 kDa; nine c-type hemes; monomer/dimer mixture; precursor 525 residues
Purified protein
  Km: 65 µM
  kcat: 0.017 s⁻¹
